# According to the nanobody polyreactivity screen of Harvey et al. (2022):
# Test: yeast display, Sf9 membrane polyspecificity reagent, FACS + sequencing; frameworks hold sequencing errors
# Outline: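 Galactose induction of a Saccharomyces cerevisiae BJ5465 synthetic nanobody display library ran 36–48 hours. The cells were then stained for 1 hour at 4 °C with 10% biotinylated, detergent-solubilized Sf9 membrane reagent, pulled down on streptavidin microbeads and FACS-sorted into low and high (top ~1%) gates on expression and reagent-binding fluorescence. Labels for polyreactivity follow the gate of origin.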
row,Sequence,polyreactivity (PSR sort gate)
1,QVQLVESGGGLVQEGGSLRLSCAASGSTFNAYAMGWYRQAPGKERELVATINDDGGTTYYADSVKGRFTISRDNAKNTVYLQMNSLKPEDTAVYYCAASGFDTSYETAPSDSWGYDYWGQGTQVTVSS,low polyreactivity
2,QVQLVESGGGLVQAGGSLRLSCAASRSNFQFYAMGWYRQAPGTERELVAVISTRGGSTYYADSVKGRFTISRDKAKNTVYLQMYSLKPEDTAVYYCAAKSVYRMGYWGQGTQVTVSS,high polyreactivity
3,QVQLVESGGGVVQAGGSLRLSCAASGSTFYPYAMGWYRPAPVKERELVASISSRGGTTYYADSEKGRFTISRDNAKNTVYLQRNSLKPEDTAVYYCAATYKHLNPLGVFSGGYYYWGQGTQVTVSS,high polyreactivity
4,QVQLVETGGGLVQAGGSLRLSCAASGFTCYRNAIGWYRQAPRKDREIVAAITSDGITYYADSVKGRFTMSRDNAKNTVYLQMNSLKPEDTAVYYCAADVQADLYSYEYDYWGQGTQVTVSS,low polyreactivity
5,QVQLVESGGGLVQAGGSLRLSCAASGFAFSYYAMGWYRQAPGKEREFVASIDWSGGSTYYADSVKGRFTISRDNAKNTVFLQMNSLKPEDTAVYYCAAELDYFPGYDYWGQGTQVTVSS,low polyreactivity
6,QVQLVESGGGLVQAGGSLRLSCAASGRTYKYYAMGWYRQAPGKERELVAAISRGGSTNYADSVKGRFTISRDNAKKTVYLQVNSLKPEDTAVYYCARRYIVQSGDDYWGQGTQVSVSS,low polyreactivity
7,QVQLVESGGGLVQAGGSLRLSCAASGRTFWGYGMGWYRQAPGKERELVATISSGGSTYYADSVKGRFTISRDNAKNTVYLQMNSLKPEDTAVYYCAARPPRTYWRYQSDYWGQGTQVTVSS,high polyreactivity
8,QVQLVESGGGLVQAGGSLRLSCAASGSTFSEYAMGCYRQAPGKERELVAAITWDGGSTYYPDSVKGRFTISRDNAKNTVYLQMNSLKPEDTAVYYCATDGWSYSYGYWGQGTQVTVSS,low polyreactivity
9,QVQLIESGGGLVQAGGSLRLSCAASGRTFGRYTMGWYRQAPGKERELVADISGTGGRTYYSDSVKGRFTISRDNAKNTVYLQMNSLKPEDTAVYYCNAVLHRRFDYWGQGTQVTVSS,high polyreactivity
10,QVQLVESGGGLVQAGGSLRLSCAASGFIFYRYAMGWYRPAPGKERELVAAISRSGGTTYYADSVKGRFTISRDNAKNTVYLQMNSLKPEDTAVYYCNVKRGTIGGYYYWGQGTQVTVSS,high polyreactivity
11,QVLLQESGGGLVQAGGSLRLGCAASGTISPAYYMGRNHQAPGKEREFVAAITYGTNTYYADSVKGRFTISRDNAKNTVYLQMNSLKPEDTAVYYCSATAGYNGAHDYWGQGTQVTVSS,low polyreactivity
12,QVQLVESGGGLVQAGGSLRLSCAASGRIYGDYAMGWYRQAPGKERELVARITWSGTGTYYADSVKGRFTISRDNAKNTVYLQMNSLKPEDTAVYYCNADWQVKWYYYWGQVTQVTVSS,low polyreactivity
13,QVQLVETVGCLVQAGGSLRLSSAASGRIFPYNAMGRYRQAPGKERELVAAIDWRDNTYYADSVKGRFTISRDNATNTVYLQMNSLIPEDTAVYDCNVDYTDYFLNKYDYWGQGTQVTVSS,low polyreactivity
14,QVQLVESGGGLVQAGGSLRLSCAASGSTFSTYAMGSYRQAPGKERELVATISKRGGSTYYADSVKGRFTISRDNAKNTVYLQMNSLKPEDTAVYYCATPRYRYYTIYDYGYWGQGTQVTVSS,high polyreactivity
15,QVQLVESGGGLVQAGGSLRLSCAASGSTYRTYPMGWYRQAPGKERELVASISYRSGRTYYADSVKGRFTISRDNAKNTVYLPMNSLKPEDTAVYYCNSRMYGVISRMDYWGQGTQVTVSS,high polyreactivity
16,QVQIVESGGGLVQAGGSLRLSCAASGITFLWNVMGWYRQAPGKERELVATITSIGGITNYADSVKGRFTISRDNAKNSVYLQMNSLKTEDSAFYYCATQIVSGSRVDRNDYWGQGTQVTVSS,low polyreactivity
17,QVQLVESGGGLVQAGGSLRLSCAASGLTFSPNAMGWYRQAPRKERELVAAISSSGGRTNYADSVKGRFTISRDNAKNTVYLQMNSLKPEDTAFYYCAARFYKTYPRMNYWGQGTQVTVSS,high polyreactivity
